Assay results published in paper PMC3050729, “Novel computational analysis of protein binding array data identifies direct targets of Nkx2.2 in the pancreas”.

Molecular target: T1, Nkx2.2 (in vitro translated) (UniProt P42586 1-273)
T1 sequence: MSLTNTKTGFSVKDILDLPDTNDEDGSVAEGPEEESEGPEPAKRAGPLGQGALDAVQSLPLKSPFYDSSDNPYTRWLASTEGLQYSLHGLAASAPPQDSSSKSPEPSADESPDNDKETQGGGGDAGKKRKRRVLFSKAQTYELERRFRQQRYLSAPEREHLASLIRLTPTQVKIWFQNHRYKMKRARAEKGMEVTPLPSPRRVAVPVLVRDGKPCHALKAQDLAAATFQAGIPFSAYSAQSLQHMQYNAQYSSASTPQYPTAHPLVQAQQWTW
Assay: EMSA; EMSA as in ref 20; buffer, salt, pH and temperature not given
Conditions: protein: ivt, label: 32P-dCTP Klenow fill-in, filled in with Klenow

B1: Nkx6.2 +1669 (+669 in probe list) (dsDNA)
DNA 1: CCGAATCCCGCGCGGGCCACTTACCGGAGCCGGCCAGTCGCGGGTCCCTC
DNA 2: CTGGAGGGACCCGCGACTGGCCGGCTCCGGTAAGTGGCCCGCGCGGGATT
5' overhangs
  binding result: no binding

B2: Ins2 -144 (dsDNA)
DNA 1: TGCTTTCTGCAGACCTAGCACCAGGCAAGTGTTTGGAAACTGCAGCT
DNA 2: CTGAAGCTGCAGTTTCCAAACACTTGCCTGGTGCTAGGTCTGCAGAA
5' overhangs
  binding result: no binding

B3: Gcg -1080 (dsDNA)
DNA 1: AGACCATTGAAACAACTGGAGGAGTACTCTGACTGAACTTAATTCTTCAT
DNA 2: AGAATGAAGAATTAAGTTCAGTCAGAGTACTCCTCCAGTTGTTTCAATGG
5' overhangs
  binding result: no binding

B4: Nkx2.2 AAGT consensus (dsDNA)
DNA 1: TCGACGCGATTTTTCAAGTGGTTTTCAGTAGC
DNA 2: AGCTGCTACTGAAAACCACTTGAAAAATCGCG
5' overhang 4 nt
  binding result: binds

B5: Ins2 -477 (Ins -471 in probe list) (dsDNA)
DNA 1: AAGCAGAACTCAGGCAGCAAGGTACTTAATGGTCCCTCCTTCTCCATC
DNA 2: AGAGATGGAGAAGGAGGGACCATTAAGTACCTTGCTGCCTGAGTTCT
5' overhangs
  binding result: binds
